From US20210179710A1, “COMBINATION IMMUNOTHERAPY AND CHEMOTHERAPY FOR THE TREATMENT OF A HEMATOLOGICAL MALIGNANCY” (Actinium Pharmaceuticals, Inc., priority 2018, published 2021)
Read-outs that look alike come from different tables or passages of the source.

Experiments:
[1] = tested on: HL60 (leukemia cells); test: Cytotoxicity against HL60 cell suspensions; format: cell-based
[2] = tested on: peripheral blood and bone marrow cells; test: Reactivity with peripheral blood and bone marrow cells from frozen tissues; format: binding; conditions: nonhuman primate and human frozen tissues
[3] = tested on: relapsed/refractory AML; test: Dose escalation (MTD) in patients with relapsed/refractory AML; format: in vivo, human
Protocol: A maximum tolerated dose (MTD) of a single injection of the radiolabeled lintuzumab was determined to be 3 uCi/kg patient weight. As a split dose (e.g., 2 equal doses administered 4-7 days apart), the MTD was determined to be 2 uCi/kg per dose, or 4 uCi/kg total. […] Determination of MTD was based on the severity of the adverse effects observed at each dose level. Anti-leukemic effects included elimination of peripheral blood blasts in 13 of 19 evaluable patients. Twelve of 18 patients who were evaluable at 4 weeks following treatment had reductions in bone marrow blasts, including nine with reductions ≥50%. Three patients treated with 1 uCi/kg, 3 uCi/kg and 4 uCi/kg respectively had ≤5% blasts after therapy.

[4] = tested on: AML; test: Phase 1 clinical trial, fractionated doses combined with low dose Ara-C (LDAC); format: in vivo, human; conditions: fractionated doses on days 1 and 8 combined with LDAC
Description: (§1) Preliminary data are available on 9 with median age 75 years (range, 65-82) and PS median 2 (0-1 in 2 patients, […], & 3 in 2 patients). Six (67%) had prior treatment for AHDs (5 MDS, 1 atypical CML). At baseline, 5 patients had ANC≥500/μL, only 2 had ANC≥1000/μL, and only 1 had platelets >50,000/μL.

[5] = tested on: AML; test: Phase 2 portion, monotherapy without LDAC in AML patients unfit for cytotoxic chemotherapy; format: in vivo, human
Description: as §1
The 30-day mortality rate was 33% (disease progression, acute on chronic respiratory failure, and post-traumatic intracranial hemorrhage after a fall).
Objective responses were documented in 5 of the 9 patients (56%): 2 Complete Remissions with incomplete platelet count recovery (CRp) and 3 Complete Remissions with incomplete hematologic recovery (CRi). Two patients had resistant disease.
The two patients with CRp had neutrophil recovery at Days 60 and 36. Two of the patients with CRi had not reached ANC≥500/μL when they expired from infection on days 65 and 56, and the third is at day 66+ without ANC recovery. Since patients with antecedent hematologic disorders (AHDs) may not have capacity to recover to normal neutrophil production, patients without AHDs may be more informative. Of the 3 patients without AHDs, 1 had ANC recovery at Day 36, 1 had death from infection at Day 56 without ANC recovery, and 1 is pending ANC recovery at Day 66+. […]

[6] = molecular target: T1, CD33 (Homo sapiens, UniProt P20138); conditions: human peripheral blood mononuclear cells as effectors, cited from earlier work
T1 sequence (P20138 18-364): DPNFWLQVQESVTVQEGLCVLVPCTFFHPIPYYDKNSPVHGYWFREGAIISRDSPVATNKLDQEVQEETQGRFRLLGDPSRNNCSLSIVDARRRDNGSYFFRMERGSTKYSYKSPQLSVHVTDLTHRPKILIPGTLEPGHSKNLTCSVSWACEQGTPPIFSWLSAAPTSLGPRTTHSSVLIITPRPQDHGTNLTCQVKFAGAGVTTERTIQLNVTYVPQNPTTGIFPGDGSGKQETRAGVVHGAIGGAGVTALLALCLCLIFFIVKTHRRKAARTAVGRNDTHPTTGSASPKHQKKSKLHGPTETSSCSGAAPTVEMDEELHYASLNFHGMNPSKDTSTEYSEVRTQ

[7] = molecular target: T1, CD33; conditions: higher than M195; cited from earlier work
[8] = tested on: relapsed or refractory AML and CML; conditions: cited from earlier work
[9] = 2 equal doses administered 4-7 days apart
[10] = 2 μCi/kg/fraction monotherapy, preliminary
[11] = four clinical trials, native HuM195 alone

lintuzumab-Ac^225: Lintuzumab conjugated with Actinium-225 (Ac^225)
dose at which 50% of the cells were killed (LD50) [1]: 8 μCi per mL of cell suspension | reactivity with peripheral blood and bone marrow cells (specificity) [2]: reactivity with mononuclear cells only | elimination of peripheral blood blasts ([3]; 0.5 uCi/kg to 4 uCi/kg): 13 of 19 | MTD, split dose, per dose [3, 9]: 2 uCi/kg per dose | MTD, split dose, total [3, 9]: 4 uCi/kg total | patients with reductions in bone marrow blasts ≥50% ([3]; of 18 evaluable at 4 weeks): nine | maximum tolerated dose (MTD), single injection ([3]; single injection): 3 uCi/kg patient weight | patients with ≤5% blasts after therapy ([3]; treated with 1 uCi/kg, 3 uCi/kg and 4 uCi/kg respectively): Three | dose at which treatment induced remissions [4]: above 0.5 uCi/kg/fraction | 30-day mortality rate ([5]; 2 μCi/kg/fraction): 33% | Grade >3 non-hematologic toxicities reported in ≥1 pt ([5]; 2 μCi/kg/fraction): pneumonia and cellulitis | platelet counts >20,000/μL without transfusions ([5]; 2 μCi/kg/fraction): No patients reached platelet counts >20,000/μL without transfusions | veno-occlusive disease ([5]; 2 μCi/kg/fraction): did not occur | objective response rate [5, 10]: 56% | objective responses (patients) [5, 10]: 5 of the 9 | myelosuppression ([5]; 2 μCi/kg/fraction, days 1 and 8, preliminary data on 9 patients): seen in all evaluable patients | grade 4 thrombocytopenia with marrow aplasia for >6 weeks following therapy ([5]; 2 μCi/kg/fraction, preliminary data on 9 patients): 3 patients | median time to neutrophil recovery (ANC≥500/μL) ([5]; from the first dose, range 20-60): 36 days | Complete Remissions with incomplete hematologic recovery (CRi) ([5]; of 9 patients): 3 | Complete Remissions with incomplete platelet count recovery (CRp) ([5]; of 9 patients): 2 | patients with resistant disease ([5]; of 9 patients): Two

HuM195: recombinant humanized anti-CD33 monoclonal antibody
antibody-dependent cell-mediated cytotoxicity (ADCC) [6]: induced antibody-dependent cell-mediated cytotoxicity | antibody-dependent cell-mediated cytotoxicity (ADCC) ([6]; listed as lintuzumab): demonstrated antibody-dependent cell-mediated cytotoxicity | binding avidity relative to M195 [7]: greater than 8 fold | single agent activity in AML ([8]; even at supra-saturating doses that fully blocked CD33 binding sites throughout a 4-week period): very modest activity | human anti-human antibody responses [8, 11]: not seen | most common toxicities [8, 11]: Fever, chills, and nausea | reduction in marrow blast cells [8, 11]: seen in some patients
